Measured values as given in article PMC5513711, “Noroviruses Co-opt the Function of Host Proteins VAPA and VAPB for Replication via a Phenylalanine–Phenylalanine-Acidic-Tract-Motif Mimic in Nonstructural Viral Protein NS1/2” (mBio, 2017).
Read-outs that look alike come from different tables or passages of the source.

How the values were obtained:
[1] = molecular target: NS1/2^MNoV (strain not told; partner of the VAPA mutants in Fig. 4A and 4C); assay: mammalian 2-hybrid (M2H); conditions: for response: read off a plot
[2] = molecular target: VAPA (mammalian 2-hybrid construct) (UniProt Q9WV55); assay: mammalian 2-hybrid (M2H); conditions: n = 3; for response: parent: est. 170, read off a plot
VAPA (mammalian 2-hybrid construct), sequence (Q9WV55 whole entry, the tested form may be a part): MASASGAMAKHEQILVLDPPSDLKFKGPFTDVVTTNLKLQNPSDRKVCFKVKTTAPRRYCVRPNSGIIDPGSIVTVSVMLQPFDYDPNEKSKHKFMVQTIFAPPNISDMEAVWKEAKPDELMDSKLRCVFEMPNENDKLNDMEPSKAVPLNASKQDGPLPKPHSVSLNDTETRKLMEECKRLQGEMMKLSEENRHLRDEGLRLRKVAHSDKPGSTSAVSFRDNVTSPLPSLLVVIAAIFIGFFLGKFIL

[3] = molecular target: the molecule itself; assay: SEC + other: diffusion NMR; VAPA 8-226 in solution; dimer
[4] = molecular target: the molecule itself; assay: not stated; VAPA 133-226 in solution; dimeric size, method not given

VAPA (mammalian 2-hybrid construct) (from UniProt Q9WV55) K50E; K52E
other: Fold Change [1]: 1.29
response ([1]; parent: est. 140): 38 %fluc/Rluc

NS1/2^MNoV of strain CR6 (mammalian 2-hybrid construct) E40A
other: Fold Change [2]: 2.13
response [2]: 62 %fluc/Rluc

VAPA (mammalian 2-hybrid construct) (from UniProt Q9WV55) V51A
other: Fold Change ([1]; n = 3): 1.66
response ([1]; n = 3, parent: est. 170): 32 %fluc/Rluc

VAPA (mammalian 2-hybrid construct) (from UniProt Q9WV55) K50E
other: Fold Change ([1]; n = 3): 2.26
response ([1]; n = 3, parent: est. 170): 41 %fluc/Rluc

VAPA (mammalian 2-hybrid construct) (from UniProt Q9WV55) K125E
other: Fold Change ([1]; n = 3): 1.47
response ([1]; n = 3, parent: est. 170): 27 %fluc/Rluc

VAPA (mammalian 2-hybrid construct) (from UniProt Q9WV55) R127E
other: Fold Change ([1]; n = 3): 2.53
response ([1]; n = 3, parent: est. 170): 40 %fluc/Rluc

NS1/2^MNoV of strain CR6 (mammalian 2-hybrid construct) E42K
other: Fold Change [2]: 1.04
response [2]: 28 %fluc/Rluc

NS1/2^MNoV of strain CR6 (mammalian 2-hybrid construct) E54K
other: Fold Change [2]: 3.92
response [2]: 90 %fluc/Rluc

NS1/2^MNoV of strain CR6 (mammalian 2-hybrid construct) D131G
other: Fold Change [2]: 7.98
response [2]: 180 %fluc/Rluc

VAPA (mammalian 2-hybrid construct) (from UniProt Q9WV55) C60A
other: Fold Change ([1]; n = 3): 3.9
response ([1]; n = 3, parent: est. 170): 61 %fluc/Rluc

NS1/2^MNoV of strain CR6 (mammalian 2-hybrid construct) N46G
other: Fold Change [2]: 10.8
response [2]: 300 %fluc/Rluc

NS1/2^MNoV of strain CR6 (mammalian 2-hybrid construct) H69L
other: Fold Change [2]: 8.14
response [2]: 180 %fluc/Rluc

NS1/2^MNoV of strain CR6 (mammalian 2-hybrid construct) M48I
other: Fold Change [2]: 5.16
response [2]: 150 %fluc/Rluc

VAPA (mammalian 2-hybrid construct) (from UniProt Q9WV55) K94E
other: Fold Change ([1]; n = 3): 1.2
response ([1]; n = 3, parent: est. 170): 38 %fluc/Rluc

NS1/2^MNoV of strain CR6 (mammalian 2-hybrid construct) M48L
other: Fold Change [2]: 10.8
response [2]: 300 %fluc/Rluc

NS1/2^MNoV of strain CR6 (mammalian 2-hybrid construct) D43K
other: Fold Change [2]: 1.07
response [2]: 30 %fluc/Rluc

VAPA (mammalian 2-hybrid construct) (from UniProt Q9WV55) R62E
other: Fold Change ([1]; n = 3): 1.64
response ([1]; n = 3, parent: est. 170): 34 %fluc/Rluc

VAPA (mammalian 2-hybrid construct) (from UniProt Q9WV55) K50A
other: Fold Change ([1]; n = 3): 3.11
response ([1]; n = 3, parent: est. 170): 69 %fluc/Rluc

NS1/2^MNoV of strain CR6 (mammalian 2-hybrid construct) E40K
other: Fold Change [2]: 1.31
response [2]: 45 %fluc/Rluc

VAPA (mammalian 2-hybrid construct) (from UniProt Q9WV55) T54A
other: Fold Change ([1]; n = 3): 1.78
response ([1]; n = 3, parent: est. 170): 44 %fluc/Rluc

NS1/2^MNoV of strain CR6 (mammalian 2-hybrid construct) E44K
other: Fold Change [2]: 0.95
response [2]: 30 %fluc/Rluc

NS1/2^MNoV of strain CR6 (mammalian 2-hybrid construct) E52K
other: Fold Change [2]: 1.63
response [2]: 30 %fluc/Rluc

VAPA (mammalian 2-hybrid construct) (from UniProt Q9WV55) K94A; M96A
other: Fold Change [1]: 0.95
response ([1]; parent: est. 140): 27 %fluc/Rluc

NS1/2^MNoV of strain CR6 (mammalian 2-hybrid construct) V45G
other: Fold Change [2]: 8.32
response [2]: 240 %fluc/Rluc

VAPA (mammalian 2-hybrid construct) (from UniProt Q9WV55) K52A
other: Fold Change ([1]; n = 3): 1.4
response ([1]; n = 3, parent: est. 170): 35 %fluc/Rluc

NS1/2^MNoV of strain CR6 (mammalian 2-hybrid construct) N46D
other: Fold Change [2]: 10.3
response [2]: 290 %fluc/Rluc

VAPA (mammalian 2-hybrid construct) (from UniProt Q9WV55) N64A
other: Fold Change ([1]; n = 3): 3.82
response ([1]; n = 3, parent: est. 170): 100 %fluc/Rluc

VAPA (mammalian 2-hybrid construct) (from UniProt Q9WV55) V61A
other: Fold Change ([1]; n = 3): 7.18
response ([1]; n = 3, parent: est. 170): 190 %fluc/Rluc

NS1/2^MNoV of strain CR6 (mammalian 2-hybrid construct) E44A
other: Fold Change [2]: 1.78
response [2]: 55 %fluc/Rluc

NS1/2^MNoV of strain CR6 (mammalian 2-hybrid construct) Y47A
other: Fold Change [2]: 1.55
response [2]: 45 %fluc/Rluc

VAPA (mammalian 2-hybrid construct) (from UniProt Q9WV55) K125E; R127E
other: Fold Change [1]: 0.84
response ([1]; parent: est. 140): 23 %fluc/Rluc

VAPA (mammalian 2-hybrid construct) (from UniProt Q9WV55) K52E
other: Fold Change ([1]; n = 3): 1.38
response ([1]; n = 3, parent: est. 170): 32 %fluc/Rluc

NS1/2^MNoV of strain CR6 (mammalian 2-hybrid construct) T49A
other: Fold Change [2]: 1.55
response [2]: 50 %fluc/Rluc

NS1/2^MNoV of strain CR6 (mammalian 2-hybrid construct) M48G
other: Fold Change [2]: 11.7
response [2]: 250 %fluc/Rluc

VAPA (mammalian 2-hybrid construct) (from UniProt Q9WV55) R202E; R204E
other: Fold Change [1]: 2.78
response ([1]; parent: est. 140): 74 %fluc/Rluc

VAPA (mammalian 2-hybrid construct) (from UniProt Q9WV55) T53A
other: Fold Change ([1]; n = 3): 2.94
response ([1]; n = 3, parent: est. 170): 75 %fluc/Rluc

NS1/2^MNoV of strain CR6 (mammalian 2-hybrid construct) T49G
other: Fold Change [2]: 1.35
response [2]: 30 %fluc/Rluc

NS1/2^MNoV of strain CR6 (mammalian 2-hybrid construct) D43A
other: Fold Change [2]: 1.35
response [2]: 40 %fluc/Rluc

NS1/2^MNoV of strain CR6 (mammalian 2-hybrid construct) Y47G
other: Fold Change [2]: 1.25
response [2]: 30 %fluc/Rluc

NS1/2^MNoV of strain CR6 (mammalian 2-hybrid construct) M48A
other: Fold Change [2]: 12.8
response [2]: 190 %fluc/Rluc

NS1/2^MNoV of strain CR6 (mammalian 2-hybrid construct) V45I
other: Fold Change [2]: 5.53
response [2]: 100 %fluc/Rluc

VAPA (mammalian 2-hybrid construct) (from UniProt Q9WV55) H195E; R197E
other: Fold Change [1]: 3.28
response ([1]; parent: est. 140): 85 %fluc/Rluc

VAPA (mammalian 2-hybrid construct) (from UniProt Q9WV55) R127A
other: Fold Change ([1]; n = 3): 3.1
response ([1]; n = 3, parent: est. 170): 77 %fluc/Rluc

VAPA (mammalian 2-hybrid construct) (from UniProt Q9WV55) R62A
other: Fold Change ([1]; n = 3): 3.26
response ([1]; n = 3, parent: est. 170): 80 %fluc/Rluc

VAPA (mammalian 2-hybrid construct) (from UniProt Q9WV55) M96A
other: Fold Change ([1]; n = 3): 2.72
response ([1]; n = 3, parent: est. 170): 63 %fluc/Rluc

NS1/2^MNoV of strain CR6 (mammalian 2-hybrid construct) S41G
response [2]: 40 %fluc/Rluc

NS1/2^MNoV of strain CR6 (mammalian 2-hybrid construct) E42A
other: Fold Change [2]: 1.22
response [2]: 30 %fluc/Rluc

VAPA (mammalian 2-hybrid construct) (from UniProt Q9WV55) D123A
other: Fold Change ([1]; n = 3): 8.18
response ([1]; n = 3, parent: est. 170): 110 %fluc/Rluc

NS1/2^MNoV of strain CR6 (mammalian 2-hybrid construct) V45A
other: Fold Change [2]: 8.72
response [2]: 250 %fluc/Rluc

NS1/2^MNoV of strain CR6 (mammalian 2-hybrid construct) N46C
other: Fold Change [2]: 7.96
response [2]: 220 %fluc/Rluc

VAPA (mammalian 2-hybrid construct) (from UniProt Q9WV55) K125A
other: Fold Change ([1]; n = 3): 1.67
response ([1]; n = 3, parent: est. 170): 27 %fluc/Rluc

NS1/2^MNoV of strain CR6 (mammalian 2-hybrid construct) D121G
other: Fold Change [2]: 7.91
response [2]: 180 %fluc/Rluc

NS1/2^MNoV of strain CR6 (mammalian 2-hybrid construct) M48D
other: Fold Change [2]: 6.37
response [2]: 180 %fluc/Rluc

VAPA (mammalian 2-hybrid construct) (from UniProt Q9WV55) K94A
other: Fold Change ([1]; n = 3): 1.74
response ([1]; n = 3, parent: est. 170): 42 %fluc/Rluc

VAPA (mammalian 2-hybrid construct) (from UniProt Q9WV55) K161E; H163E
other: Fold Change [1]: 2.43
response ([1]; parent: est. 140): 80 %fluc/Rluc

B1: VAPA MSP domain with linker and coiled-coil domain (8–226) (domain or fragment)
chain: MAKHEQILVLDPPSDLKFKGPFTDVVTTNLKLQNPSDRKVCFKVKTTAPRRYCVRPNSGIIDPGSIVTVSVMLQPFDYDPNEKSKHKFMVQTIFAPPNISDMEAVWKEAKPDELMDSKLRCVFEMPNENDKLNDMEPSKAVPLNASKQDGPLPKPHSVSLNDTETRKLMEECKRLQGEMMKLSEENRHLRDEGLRLRKVAHSDKPGSTSAVSFRDNVTS
notes: murine VAPA, MSP domain with linker and coiled-coil domain, residues 8-226; Natural abundance (unlabeled) in the titrations of 15N NS1; also called VAPA (M8–S226 of VAPA); unlabeled VAPA; source: E. coli, purified
stoichiometry N [3]: 2

B2: VAPA fragment (133–226), isolated coiled-coil domain (domain or fragment)
chain: PNENDKLNDMEPSKAVPLNASKQDGPLPKPHSVSLNDTETRKLMEECKRLQGEMMKLSEENRHLRDEGLRLRKVAHSDKPGSTSAVSFRDNVTS
notes: murine VAPA, linker and coiled-coil domain, residues 133-226; also called coiled-coil domain (P133–S226 of VAPA); CCD; source: E. coli, purified
stoichiometry N [4]: 2
